Experiment [1] deals with RanBP2/NUP358 BICD2 Binding Domain (BBD), 2147-2287 (UniProt P49792). Kind of experiment: GST pull-down with purified proteins. Conditions: reference: wild type; sites S102.
A further experiment concerns the target PLK1 (UniProt P53350). The experiment is described as follows: anti-GFP IP, PLK1 blot. The following applies: reference: wild type, sites T319,S320,T321.
In experiment [2] the target is dynein (cytoplasmic dynein-1, endogenous, detected by its intermediate chain DIC) (human (endogenous in HeLa)) (UniProt Q13409).
Chain of dynein (cytoplasmic dynein-1, endogenous, detected by its intermediate chain DIC) (human (endogenous in HeLa)) (Q13409 whole entry, looked up): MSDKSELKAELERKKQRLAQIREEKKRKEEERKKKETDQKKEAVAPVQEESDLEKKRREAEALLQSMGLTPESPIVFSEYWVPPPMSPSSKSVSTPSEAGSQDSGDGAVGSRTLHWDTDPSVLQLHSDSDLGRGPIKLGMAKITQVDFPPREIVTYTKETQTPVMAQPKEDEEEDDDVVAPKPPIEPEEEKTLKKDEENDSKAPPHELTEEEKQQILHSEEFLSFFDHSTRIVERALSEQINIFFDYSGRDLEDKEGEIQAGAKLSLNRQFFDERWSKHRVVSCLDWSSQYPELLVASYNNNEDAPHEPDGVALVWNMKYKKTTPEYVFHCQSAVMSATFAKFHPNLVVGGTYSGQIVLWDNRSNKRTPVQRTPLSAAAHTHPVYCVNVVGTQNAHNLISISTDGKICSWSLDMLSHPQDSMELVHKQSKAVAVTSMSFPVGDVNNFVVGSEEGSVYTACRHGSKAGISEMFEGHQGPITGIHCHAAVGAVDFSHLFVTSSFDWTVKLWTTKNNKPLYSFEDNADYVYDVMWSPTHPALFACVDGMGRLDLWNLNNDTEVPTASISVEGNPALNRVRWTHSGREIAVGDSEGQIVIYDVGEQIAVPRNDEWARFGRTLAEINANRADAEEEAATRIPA
The target in experiment [3] is PLK1 PBD, 354-603 (Methods: 345-603) (UniProt P53350). The experiment is described as follows: GST-PBD pull-down from cell extracts. Conditions: reference: wild type; sites T319,S320,T321.
Experiment [4] concerns the target GST-RanBP2 BBD phosphorylated by CDK1/cyclin B (human) (UniProt P49792). The experiment is described as follows: pull-down; GST-RanBP2 BBD on GSH agarose beads, untreated or pre-phosphorylated by CDK1/cyclin B1, incubated 90 min at RT with purified TwinStrep-BICD2 in Binding Buffer (50 mM Tris pH 7.4, 125 mM NaCl, 5 mM EDTA, 0.1% NP40); blot with anti-BICD2.

Chain of GST-RanBP2 BBD phosphorylated by CDK1/cyclin B (human) (P49792 2147-2287): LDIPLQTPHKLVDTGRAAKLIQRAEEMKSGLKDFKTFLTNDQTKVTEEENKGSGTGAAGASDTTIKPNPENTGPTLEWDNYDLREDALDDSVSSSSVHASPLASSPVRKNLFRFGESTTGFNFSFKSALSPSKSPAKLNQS

In turn, “BICD2 (mouse, recombinant) (from UniProt Q921C5) S102D” returned a fold change in experiment [1] of 12.
In the case of “BICD2 (mouse, recombinant) (from UniProt Q921C5) T319A/S320A/T321A, mitotic cells”, the “binding against the reference” value with PLK1 (mitotic cells) was “lost”.
Consider “GFP-BICD2 [1–575] (from UniProt Q921C5 1-575) (domain or fragment)”, for which, in experiment [2], the percent of U2OS cells with clustered mitochondria, BICD2 form expressed as GFP-BICD2 [1–575]-MTD turned out to be 85%.
Take “BICD2 (mouse, recombinant) (from UniProt Q921C5) T319A/S320A/T321A, exponentially growing cells”: in the experiment with PLK1 (exponentially growing cells), the “binding against the reference” value is “lost”.
Substance “GFP-BICD2 S102A (from UniProt Q921C5 1-820) (natural protein)” displayed a percent of U2OS cells with clustered mitochondria, BICD2 form expressed as GFP-BICD2 S102A-MTD in experiment [2] of 43%.
As for “BICD2 (mouse, recombinant) (from UniProt Q921C5) T319A/S320A/T321A”, in experiment [3], the “binding against the reference” value is “lost”.
On to “TwinStrep-BICD2 S102D (from UniProt Q921C5 1-820) (natural protein)”, for which, in experiment [4], the fold binding against wild-type BICD2 on phosphorylated BBD is 12 fold and the fold binding against wild-type BICD2 on unmodified BBD was 400 times.
For the substance “GFP-BICD2 wild type (from UniProt Q921C5 1-820) (natural protein)”, in experiment [2], the percent of U2OS cells with clustered mitochondria, BICD2 form expressed as GFP-BICD2 WT-MTD came out at 50%.
With “GFP-BICD2 S102D (from UniProt Q921C5 1-820) (natural protein)”, in experiment [2], the percent of U2OS cells with clustered mitochondria, BICD2 form expressed as GFP-BICD2 S102D-MTD was 61%.

The record behind these values is PMC10140047.
